We go through two substances from patent US20240400703A1.

The target in experiment [1] is recombinant human OX40 fused to a His-tag (Acro Biosystems, cat. no. OX0-H5224) (human) (UniProt P43489). Put plainly: BLI cross-block; first Ab (competitor): IgG1-CD134-007.
Experiment [2] has the same target. Put plainly: BLI cross-block; first Ab (competitor): IgG1-CD134-IBI101.
Experiment [3] has the same target. In words: BLI cross-block; first Ab (competitor): IgG1-CD134-GBR830.
Experiment [4] has the same target. Put plainly: BLI cross-block; first Ab (competitor): IgG1-CD134-11D4.
Experiment [5] shares this target. Put plainly: BLI cross-block; first Ab (competitor): IgG1-CD134-003-HC6LC2-RR.
Experiment [6] has the same target. Put plainly: BLI cross-block; first Ab (competitor): IgG1-CD134-INCAGN1949.
Experiment [7] shares this target. In words: BLI cross-block; first Ab (competitor): IgG1-CD134-RG7888.
For experiment [8] the target is unchanged. Put plainly: BLI cross-block; first Ab (competitor): IgG1-CD134-A4453.
For experiment [9] the target is unchanged. In words: BLI cross-block; first Ab (competitor): IgG1-CD134-012.
For experiment [10] the target is unchanged. In words: BLI cross-block; first Ab (competitor): IgG1-CD134-MEDI0562.
Experiment [11] shares this target. In words: BLI cross-block; first Ab (competitor): IgG1-CD134-h3C8.
The target is the same in experiment [12]. In words: BLI cross-block; first Ab (competitor): IgG1-CD134-ABBV368.
Experiment [13] has the same target. In words: BLI cross-block; first Ab (competitor): IgG1-CD134-SF2.
Experiment [14] shares this target. Put plainly: BLI cross-block; first Ab (competitor): IgG1-CD134-003.
Experiment [15] has as its target human OX40 with mouse CRD1 (human with mouse CRD1) (UniProt P43489). In words: flow cytometry, transfected ExpiCHO-S cells, gMFI (PE). In general terms: Flow cytometry measures light scatter and fluorescence of single cells or particles in a stream.
Experiment [16] concerns the target recombinant human OX40 fused to a His-tag (Acro Biosystems, cat. no. OX0-H5224) (human) (UniProt P43489). Put plainly: BLI cross-block; first Ab (competitor): IgG1-CD134-49B4-RRE.
Experiment [17] shares this target. In words: BLI cross-block; first Ab (competitor): IgG1-CD134-Hu106.

Chain of recombinant human OX40 fused to a His-tag (Acro Biosystems, cat. no. OX0-H5224) (human) (P43489 29-214 limits assumed): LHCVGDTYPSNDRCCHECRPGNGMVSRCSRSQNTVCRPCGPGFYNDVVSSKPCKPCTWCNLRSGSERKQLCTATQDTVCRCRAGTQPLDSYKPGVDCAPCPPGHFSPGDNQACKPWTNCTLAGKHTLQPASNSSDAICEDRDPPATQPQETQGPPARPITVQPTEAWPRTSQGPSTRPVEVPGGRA
Chain of IgG1-CD134-IBI101 (antibody) (VH): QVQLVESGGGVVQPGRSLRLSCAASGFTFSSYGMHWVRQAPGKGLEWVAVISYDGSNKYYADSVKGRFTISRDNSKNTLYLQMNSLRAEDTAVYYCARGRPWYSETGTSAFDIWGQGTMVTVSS
Chain of IgG1-CD134-IBI101 (antibody) (VL): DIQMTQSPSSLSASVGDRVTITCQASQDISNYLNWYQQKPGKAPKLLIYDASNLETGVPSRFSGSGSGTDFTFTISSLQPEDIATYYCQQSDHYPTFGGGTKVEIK
Chain of human OX40 with mouse CRD1 (human with mouse CRD1) (P43489 other isoform, or with tags, fused parts or gaps limits assumed): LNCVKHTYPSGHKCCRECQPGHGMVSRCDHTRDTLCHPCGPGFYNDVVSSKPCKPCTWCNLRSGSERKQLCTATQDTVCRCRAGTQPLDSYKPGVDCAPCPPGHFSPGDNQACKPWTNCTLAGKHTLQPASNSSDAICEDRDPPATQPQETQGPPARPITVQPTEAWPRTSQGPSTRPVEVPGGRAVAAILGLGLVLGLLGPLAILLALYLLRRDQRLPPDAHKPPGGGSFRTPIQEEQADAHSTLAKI

By EC50 (read off the curve) is commonly meant the concentration at which the effect is half-maximal. High values mean lower potency in that assay, low ones higher potency in that assay. With IgG1-CD134-INCAGN1949 (antibody), the association response is 0.55 nm in [1]; 0.01 nm in experiment [2]; 0.01 nm in experiment [3]; 0.11 nm in experiment [4]; 1.74 nm in [5]; 0 nm in experiment [6]. In addition, the association response was 0.01 nm in experiment [7]; 0.25 nm in [8]; 0.73 nm in [9]; 0.01 nm in experiment [10]; -0.02 nm in experiment [11]; -0.03 nm in [12]. For the same substance, the association response in experiment [13] is 0.02 nm; in experiment [14], 1.39 nm; in experiment [16], 0 nm; in experiment [17] it was -0.01 nm. In [15], this substance came in with an EC50 (read off the curve) of 0.09 mg/L.
Consider IgG1-CD134-IBI101 (antibody), for which the association response turned out to be 0.02 nm in experiment [1]; 0.01 nm in experiment [2]; 0.01 nm in experiment [3]; 0.15 nm in [4]; 1.23 nm in experiment [5]; 0.02 nm in experiment [6]. Besides, the association response was 0.31 nm in experiment [7]; 0.24 nm in experiment [8]; 0.82 nm in experiment [9]; 0.26 nm in experiment [10]; -0.03 nm in [11]; -0.02 nm in experiment [12]. Also, the association response in experiment [13] is 0.07 nm; in [14], 0.74 nm; in [16], 0 nm; in [17] it was -0.02 nm. This substance also came in with an EC50 (read off the curve) in experiment [15] of 0.07 mg/L.
